The chains are these.
B1: h5A10-DFO (antibody, human IgG1, kappa, V domains shown)
VH: QVTLKESGPALVKPTQTLTLTCTFSGFSLSTTGMGVSWIRQPPGKALEWLAHIYWDDDKRYSTSLKTRLTISEDSSKNQVVLTMTNMDPVDTATYYCARKGYYGYFDYWGQGTLVTVSS
VL: DIQMTQSPSSLSASVGDRVTVTCRASQNVNTDVAWYQQKPGKAPKALIFSTSYLQSGVPSRFSGSGSGTDFTLTISSLQPEDFATYYCQQYSNYPLTFGQGTKVEIKR
modifications: DFO (deferoxamine) chelator conjugated to the antibody; sites and chain not stated
notes: Humanised 5A10 IgG1/kappa conjugated with the chelator DFO; also called h5A10-DFO (141203)
B2: humanised monoclonal antibody 5A10 (h5A10) (antibody, human IgG1, kappa, V domains shown)
VH: B1 VH
VL: B1 VL
notes: also called hu5A10 (141203); h5A10 (141203)
B3: h5A10-DOTA (antibody, human IgG1, kappa, V domains shown)
VH: B1 VH
VL: B1 VL
modifications: DOTA chelator conjugated to the antibody; sites and chain not stated
notes: Humanised 5A10 IgG1/kappa conjugated with the chelator DOTA; also called h5A10-DOTA (141211)
B4: h5A10-DTPA (antibody, human IgG1, kappa, V domains shown)
VH: B1 VH
VL: B1 VL
modifications: DTPA chelator conjugated to the antibody; sites and chain not stated
notes: Humanised 5A10 IgG1/kappa conjugated with the chelator DTPA; also called h5A10-DTPA (141203); DTPA-h5A10

In this assay the target is T1, prostate specific antigen (PSA) (human, UniProt P07288 25-261, limits assumed).
T1 construct: The antigen of the SPR study is only called 'PSA' (169 ug/ml, provided by Diaprost AB, Mw 30 000 Da); also called kallikrein III
T1 sequence (P07288 25-261 limits assumed): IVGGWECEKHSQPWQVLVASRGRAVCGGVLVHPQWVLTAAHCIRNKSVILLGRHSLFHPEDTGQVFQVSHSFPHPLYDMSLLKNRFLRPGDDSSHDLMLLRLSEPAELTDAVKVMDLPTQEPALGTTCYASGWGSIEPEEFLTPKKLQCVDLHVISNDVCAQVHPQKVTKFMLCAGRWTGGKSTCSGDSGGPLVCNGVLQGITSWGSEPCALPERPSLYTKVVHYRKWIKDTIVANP
The assay can be described thus: SPR (Biacore 3000), PSA amine-coupled on CM4 chip, antibody in solution. The protocol:
All binding experiments were performed on CM4 chip on a Biacore™ 3000 instrument. The chip and all the reagents needed for activation, immobilization, deactivation, binding and regeneration were purchased from GE Healthcare and used according to the guidelines from the manufacturer.
The dissociation phase data was fitted and the dissociation rate constants (koff) were estimated (see Table 1). [0279] (e) Estimation of the association rate constant (kₒₙ)
In order to estimate the association rate constants, the dissociation rate constants (Table 1) were used in the fitted equations. [0281] (f) Estimation of the dissociation constant (kD)
For orientation: SPR reads the build-up and loss of mass on a sensor chip optically.
Turning to B1, binding was put at a Kd of 0.05 nM; the koff (in general, a measure of how fast the partners let go of each other) was 8.3e-06 s⁻¹; the kon (in general, a measure of how fast the partners come together) is 170000 M⁻¹ s⁻¹.
B2: binding was put at a Kd of 0.01 nM, the off-rate (koff) came out at 4.8e-06 s⁻¹ and the kon stood at 620000 M⁻¹ s⁻¹.
For B3 the same measures were 0.02 nM, 1.17e-05 s⁻¹ and 540000 M⁻¹ s⁻¹.
For B4 the same measures were 0.01 nM, 4.8e-06 s⁻¹ and 390000 M⁻¹ s⁻¹.

The values are drawn from US20220242969A1 (FREDAX, published 2022).
